Experimental data: the nanobody polyreactivity screen of Harvey et al. (2022)

Assay: yeast display, Sf9 membrane polyspecificity reagent, FACS + sequencing; frameworks hold sequencing errors
In short: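 A synthetic nanobody library was expressed on Saccharomyces cerevisiae BJ5465 by galactose induction for 36–48 hours. The library was stained for 1 hour at 4 °C with 10% biotinylated, detergent-solubilized Sf9 membrane reagent and enriched with streptavidin microbeads before FACS. Low and high (top ~1%) gates were set on anti-HA fluorescence for expression and streptavidin fluorescence for reagent binding, and each polyreactivity label reflects the gate of origin.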

Row | Sequence | polyreactivity (PSR sort gate)
1 | QVQLEESGGGLVQAGGSLRLSCAASGGIFYGYAMGWNRQAPGIERELVAAISDSGGSTYYADSVKGRFTISRDNAKNTVFLQLNSLNPEDTAVYYCATDARVGGYVSEGDFWGQGTQVTVSW | low polyreactivity
2 | QVQLVESGGGLVQAGGSLRLSCAASGSTIGFYAMGWYRQAPGKERELVAANSWTGGGTYYADSVKGRFTISRDNAKITVYLQMNSLKPEDTAVYYCARLYYFNGDFWGQGTQVTVSS | high polyreactivity
3 | QVQLVESGGGLVQARGSLRLSCAASGSTFAYNAMGWYRKAPGKERELVADITSTGTSTYADSVKGRFTISRDNAKNTVYLQMNSLKPEDTAVYYCNADYDSTYVGYDYWGQGTQVTVSS | low polyreactivity
4 | QGQHAESGGGLVQAGGSLRLTCAASGFTFVYYPMGWYRQATGKERELVAAISGRGGSTYYADSVKGRFTISRDNAKNTVFLQMNSMKPEDTAVYYCAADAYESGNWEANGYWGQGTQVSVSS | low polyreactivity
5 | QVQLVESGGGLVQAGGSLRLRCASSGYIFTYYAMGWYRQAPGKERELVAAISWSGGRTYYADSVKGRFTISRDNAKITVYLQMNSLKPEDTAVYYCNAVDKRYPDMDYWGQGTQVTVSS | high polyreactivity
6 | QVQLVESGVGLVQAGGSLRLSCAASGSIFGYYVMGWYRQAPGKERELVAAISGSDSSTYYADSVKGRFTISRDNAKNTVYLQMNRLKPEDTAVYYCNADQRYYPVEFDYWGQGTQVTVSS | low polyreactivity
7 | QVQLVASGGGLVQAGGSLRLSCAASGSTFDIYAMGWYRQAPGKERELVAAISVSDVYTYYADSVKGRFTISRDNAKNTVYLQMNSLKPEDTAVYYCAAETPTHDEWGQGTQVTVSS | high polyreactivity
8 | QGQLEESGGGLVQAGGSLRLSCAASGFTFYDNAMGWYRQAPGKERELVAAISWSGGSTYADSVKGRFTISRDNAKNTVYLLMNSLKPEDTAVYYCNADAWLASGYRYDYWGQGTQVTVSA | low polyreactivity
9 | QVQLVESGGGLVQAGGSLRLSCAASGNTFGNYGMGWYRQAPGKEREFVAAITSRGTSSYYADSVKGRFTISRDNAKNTVYLQMNSLKPEDTAVYYCNARPRYKYPRYDYWGQGTQVTVSS | high polyreactivity
10 | QVQIVESGGGLVQAGGSLRLSCAASGSIFGTYAMGWYRQAPGKERELVAAITRRGGSTFYADSVKGRFTISRDNAKNTVYLQMNSLKPEDTAVYDCAAPPYYWGQGTQVTVSS | high polyreactivity
11 | QVQLVESGRGLVQAGGSLRLSCAASGSTFRGNAMGWYRQATGKERELVAAITRSGGRTYYADSVKGRFTISRDNAKNTVYLQMNSLKPEDTAVYYCAVEYKYPGYDYWGPGTQVTVSS | high polyreactivity
12 | QVQLVESGGGLVQAGGSLRLSCAASGSIFPYNAMGWYRQAPGEFVAAISYSSGSTYYADSVKGRFTISRDNAKNTVYLQMNSLKPEDTAVYYCAAGSWYPPSYVWLGRYDYWGQGTQVTVSS | low polyreactivity
13 | QVQLVESGGGLVQAGGSLRLSCAASGSIFAFYAMGRYRQAPGKERELVAAISYNGGSTYYADSVKGRFTISRDNAKNTVYLQMNSLKAEDTAVYYCAAYHFRAPSEYDYWGQGTQVTVSS | low polyreactivity
14 | QVQLEESGGGLVQGGGSLRLSCAGSGRIFQLNAMGRYRQAPGIERELVADIRWSSGSTYYADTVKGRFTISRDNAKNSVYFQMYSLKPEDTAVYFCAGRVLYVHRQVYKMDYWGQGTQVTVSS | high polyreactivity
15 | QVQLVESGGGLVQAGGSLRLSCAASGFTFSYYAMGWYRQAPGKERELVAVISDRGGITYYADSVKGRFTISRDIAKITVYLQMNSLKPEDTAVYYCAAQNPRYNYRYYYWGQGTQVTVSS | low polyreactivity
16 | QVQLVESGGGLVQAGGSLRLSCSASGSTFGQYAMGWYRHAPGKERELVAAISRGGGSTYYADSVKGRFTISRDNAKYTVYLQMNSLKPEDTAVYYCNALSARSYYWGQGTQVTVSS | high polyreactivity
17 | QVQLVESGGGLVQAGGSLRLSCAASGITFSRYTMGWYRQAPGKERELVAGISSRGGSTYYADSVKGRFTISRDNAKNTVYLQMNSLKPEDTAVYYCAADGEHYPWYYYWGQGTQVTVSS | high polyreactivity
18 | QVQLVESGGGLVQAGGSLRISCAASGSIFRGNAMGWYRQAHGKERELVAAITRGVSTYYADSVKGRFTISRDNAKNTVYLQMNSLKPEDTAVYYCAKPYWWGYYSWGQGSQVTVSS | high polyreactivity
19 | QVQLVESGGGLVQAGGSLRLSCAASGSTFTGYAMGWSRQAPGKEREIVATITKRGGRTYYADSVKGRFTISRDNAKNTVYLQMNSLKPEDTAVYYCARDQGKLVVPYAYWGQGTQVTVSS | high polyreactivity
20 | QVQLVESGGRLVQAGGSLRLICADSGGIFGRYAMGWSRQAHGKERELVAAISKNGDSTYYAYSVKGRFTISRDNAKNTVYLKMNSLKPEDTAVYYCAAAKYRPKYGKNDYLGQGTQVTVSS | low polyreactivity
21 | QVQLVESVGGLVLAGGSLRLSCAASGSIFIVNAMGWYRQAPGKERELVAAISGRGGNTNYADSVKGRFTISRDNAKNTVYLQMNSLKPEDTAVYYCAARHTRDYDYWGQGTQVTVSS | low polyreactivity
22 | QVQLVESGGGLVQAGGSLRLSCAASGLTFLYYSMGWYRQAPGKERELVAAISTRGGSTYYADSVKGRFTISRDNAKNTVYLQMNSLKPEDTAVYYCNAKLIVTPGRGDYWGQGTQVSVSS | high polyreactivity

Row | Sequence | polyreactivity (PSR sort gate)
23 | QVQLVESGGGLVQAGGSLRLSCAASGRIFAVYVMGWYRQAPGKERELVAAISQSGGRTYYADSVKGRFTISRDNAKNTVYLQMNSLKPEDTAVYYCNTVTSRATNFSGFGYWGQGTQVTVSS | high polyreactivity
24 | QVQLVESGGGLVQAGGSLRLSCAASGIIFATYAMGWYRQAPGKERELVASISTGDSTNYADSVKGRFTISRDNAKTTVYLQMNSLKPEDTAVYYCNADSYPYYVYGSNDYWGQGTQVTVSS | low polyreactivity
25 | QVQLVESGGGLVQAGGSLRLSCAASGNTFYSYAMGWYRQAPGKERELVAAITWGGRRKFADSVKGRFTSSRDNAKITVYLQMNSLKPEDTAVYYCAARLFHGKTKFDYSGQGTQVTVSS | high polyreactivity
26 | QVQLVESGGGLVQAGGSLRLSCAASGRIFYRNAMGWYRQAPGKERELVAAISYSGGRTYYADSVKGRFTISRDNAKNTVYLQMNSLKPEDTAVYYCAARYAWGYVDPGDYWGQGTQVTVSS | high polyreactivity
27 | QVQLVESGGGLVQAGGSLRLSCAASGRICWYYGLGWYRQAPGKERELVAAITTGGSTYADSVKGRFTISRDNAKNTVYLQMNSLKPEDPAVYYCAADGSYVWRNGWTYFYWGQGTQVTVSS | high polyreactivity
28 | QVQLVESGGGLVQAGGSLRLSCAASGSIFEGNAMGWYRQAPGKERELVAAISRRGGRTYYADSVKGRFTISRDNAKNTVYLQMNSLKPEDTAVYYCNALYFRDGRYQTYSDKFDYWGQGTQVTVSS | high polyreactivity
29 | QVQLVESGVGLVQAGGSLRLSCAASGSTFKFYSMGWYRQAPGTERELVASITSSSGPTYFADSVKGRFTNSLDNAKNTVYLQMNSLKQEDTAVYYCAKRPIRYYHLLRGNYWGHGTQVTVSS | low polyreactivity
30 | QVQLVESGGGLVQAGGSLRLSCAASGSIFYYYAMGWYRQAPGKERELVAAISGTGGSTYYADSVKGRFSISRDNAKNTVYLQMNSLKPEDTAVYYCAASFYIERHRYNYWGQGTQVTVSS | high polyreactivity
31 | QVQLEDSGGGLVQAGGSLRLSCAASGFIFRGYGMGWYRQAPGKERELLASITTGGRTNYADSVKGRFTISRDNAKNTVYLQMNCLKPEDTAVYYCAATYYLRLRRPYWQGFNYWGQGTQVTVSS | high polyreactivity
32 | QVQLEESGGGLVQAGGSLRLSCAASGYISRQSAMGWYSQAPGKERELVAAITRGGAGTYYAASVKGRFTISRDNAKHTVYLQMNSLKPEDTAVYYCAKTWVSRDVEYDYWGQGTQVTVSS | low polyreactivity
33 | QVQLVESGGGLVQAGGSLRLSCASSGSTFISYAMGWYRPAPGKERELVAAISRRGDSTYYADSVKGRFTISRDNAKNTVYLQMNSLKPEDSAVYYCNAVEWDDYYYSYADYGYSYDYWGQGTQVTVSS | low polyreactivity
34 | QVQLVESGGRIVQAGGSLRLSCAASGIIFYLYTMGWYRQAPGKERQFVADISSGTTTYYADSVKGRFTISRDNAKNTVYLQMNSLKPADSAVYYCAAQLFRELYWGQGTQVTVSS | high polyreactivity
35 | QVQLVESGRALVQAGGSLRVSCAASGRTFDTNAMGWYRQAPGKERELVAVITARGGNTSYADSVKGRFTLSRDNAKNSVYLQMNSLKPEDTAVYYCAARVYRAPWTYDEGNYWGQGTQVTVSS | low polyreactivity
36 | QVPLVESGGGLVQAGGSLRLSCAASGFIFPNYVMGWYRQEPGKEREFVAGISVRGGRTYYADSVKGRFTISRDNAKNTVYLQMNSLKPEDTAVYYCAADRKASAFNYWGQGTQVTVSS | high polyreactivity
37 | QVQLVESGGGLVQAGGSLRLSCAASGRTFESYAMGWYRQAAGKERELVAAIRSRGGSTNYADSVKGRFTISRDNAKNTVYLQMNSLKPEDTAVYYCNKDGTWVARAVTYADFDYWGQGTQVTVSS | low polyreactivity
38 | QVQLVESGGGLVQAGGSLRLSCAASGSTFQTNAMGWYRQAPGKERELVAAINSGGGTNYADSVKGRFTFSRDNAKYTVYLQMNSLKPEDSAVYYCAAAYFDFWGWLHDYWGQGTQVTVSS | low polyreactivity
39 | QVQLVESGGGLVQAGGSLRLSCAASGFTFFRYAMGWYRQAPGKERELVAAISWSGGRTYYADSVKGRFTISRDNAKNTVYLQMNSLKPEDTAVYYCAVDYYRSGLHYDSWGQGTQVTVSS | high polyreactivity
40 | QVQLVESGGGLVQAGGSLRLSCAASGFIFYSNMGWYRQARGKEREFVAAITWRGGSTYADSVKGRFTISRDNAKNTVYLQMNSLKPEDTAVYYCARESYRAHTPGHPSGTRFGYWGQGTQVTVSS | high polyreactivity
41 | QVQLVESGGGLVQAGGSLRLSCAASGRIFFVNAMGWYRQAPGKERELVAAITYSGARTYYADSVKGRFTISRDHAKNTVYLQMNSLKPEDTAVYYCNADQRTASDQLEFDYWGQGTQVTVSS | low polyreactivity
42 | QFQLVESGGGLVQAGGSLRLSCAASGLILQNYVMGWYRQAPGKERELVAAITRSGGGTYYADSVKGRFTISRDNAKNTVYLQMNSLKPEDTAVYYCAAQRQYGKFDYWGQGTQVTVSS | high polyreactivity
43 | QVQLVESGGGLVQAGGSLRLRCAASGYTLTPYTMGWYRQAPGKERELVAAINRSGGSTYYADSVKGRFTISRDNAKNTVYLQMNSLKPEDTAVYYCAAYGYYNFGYYYWGQGTQVTVSS | high polyreactivity
